Measured values taken from article doi:10.1101/2020.03.14.988758 (bioRxiv, 2020).

B1: Fab MuSK1A (mature) (Fab, V domains shown)
VH: QVQLVQSGAEVKKPGASVKVSCKTSGYTFNNYDINWVRQAAGQGLEWMGWMNPYSGNTGYAQKFQGRVTMTRNISITTVYMELSSLRSEDTAVYYCAREVRGDTGYGGGSDYWGQGTLVTVSS
VL: SYELTQPPSVSLSPGQTATITCSGDKLDDNYVCWYQQKPGQSPVLVIYQDTMRPSGIPERFSGSNSGNIATLTISGTQAVDEADYYCQAWDGSTVVFGGGTRLTVL
B2: Fab MuSK1B (mature) (Fab, V domains shown)
VH: EVQLVEWGAGLLKPSETLSLTCAVYGGSFSGDYWWTWIRQPPGKGLEWIGEIDHTGNTNYNPSLKSRLTLSVDMSKNHFSLKLTSVTAADTALYFCARQEGLGYYDSWGQGTLVTVSS
VL: SYELTQSPSVSVSPGQTANITCSGDKLGDRYASWYQQKPAQSPVLVIYQDDRRPSGIPERFSGSNSGNTATLTISGTQGMDEADYYCQAWDGTTVFGGGTKLTVL

Target: ectodomain construct of MuSK (ectoMuSK) (aa1-472) (Homo sapiens (assumed), UniProt O15146, biotin on the Avitag (site-specific, BirA))
Assay: BLI

Chain of ectodomain construct of MuSK (ectoMuSK) (aa1-472) (O15146 24-472): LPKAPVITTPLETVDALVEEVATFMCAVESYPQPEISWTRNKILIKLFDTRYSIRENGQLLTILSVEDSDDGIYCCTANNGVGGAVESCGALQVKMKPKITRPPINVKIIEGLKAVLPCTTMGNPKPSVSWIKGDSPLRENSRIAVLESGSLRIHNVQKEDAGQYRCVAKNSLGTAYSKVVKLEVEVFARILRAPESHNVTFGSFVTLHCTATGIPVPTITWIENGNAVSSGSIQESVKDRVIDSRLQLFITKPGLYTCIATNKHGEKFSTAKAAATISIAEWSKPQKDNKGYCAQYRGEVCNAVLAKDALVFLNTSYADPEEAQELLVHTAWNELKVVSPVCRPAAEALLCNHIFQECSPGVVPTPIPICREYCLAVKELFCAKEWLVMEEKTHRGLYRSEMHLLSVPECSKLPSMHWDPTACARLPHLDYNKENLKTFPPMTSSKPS

| Binder | Kd [nM] |
| --- | --- |
| B1 | 0.41 |
| B2 | 0.44 |
